Measurements published in paper PMC9616523 (2022).

B1: human FcγRI (receptor)
chain: QVDTTKAVITLQPPWVSVFQEETVTLHCEVLHLPGSSSTQWFLNGTATQTSTPSYRITSASVNDSGEYRCQRGLSGRSDPIQLEIHRGWLLLQVSSRVFTEGEPLALRCHAWKDKLVYNVLYYRNGKAFKFFHWNSNLTILKTNISHNGTYHCSGMGKHRYTSAGISVTVKELFPAPVLNASVTSPLLEGNLVTLSCETKLLLQRPGLQLYFSFYMGSKTLRGRNTSSEYQILTARREDSGLYWCEAATEDGNVLKRSPELELQVLGLQLPTPVWFH
B2: mouse FcγRIV (receptor)
chain: GLQKAVVNLDPKWVRVLEEDSVTLRCQGTFSPEDNSIKWFHNESLIPHQDANYVIQSARVKDSGMYRCQTALSTISDPVQLEVHMGWLLLQTTKWLFQEGDPIHLRCHSWQNRPVRKVTYLQNGKGKKYFHENSELLIPKATHNDSGSYFCRGLIGHNNKSSASFRISLGDPGSPSMFPPWHQ

What was measured:
[1] = molecular target: Avaren‐Fc expressed in glycoengineered ΔXylT/ΔFucT N. benthamiana (AvFc^ΔXF) ( | human); test: SPR
[2] = molecular target: Avaren‐Fc expressed in wild‐type N. benthamiana (AvFc^WT) ( | human); test: SPR

Binder | Kd [1] | Kd [2]
B1 | 4.04 nM | 7.78 nM
B2 | 457 nM | 2530 nM
